From patent US20170224620A1 (Pfizer, published 2017)
Bridges are numbered along the chain shown (N, C = ends). Primed or numbered codes have the meaning given here. [ ]: non-standard residue; d: D form. Trp(5-OMe) = COc1ccc2[nH]cc(C[C@H](N)C(=O)O)c2c1; Igl = N[C@H](C(=O)O)C1Cc2ccccc2C1; Pen = CC(C)(S)[C@H](N)C(=O)O; DBCO′ = dibenzocyclooctyne

Assays:
[1] = biological target: T1, EGF bound EGFR (rhEGFR-Fc with recombinant human EGF pre-injected in SPR or 50 nM EGF present in ELISA) (human, UniProt P00533 25-645; P01133 971-1023); assay: P2 competition ELISA, 5% ligand density NP
T1 construct: Complex of m1 and m5 as target; also called EGFR in the presence of EGF; With EGF; not shown: Fc tag

[2] = biological target: T1, EGF bound EGFR (rhEGFR-Fc with …); assay: P2 competition ELISA, 5% nanoparticle conjugate
[3] = biological target: T1, EGF bound EGFR (rhEGFR-Fc with …); assay: P2 competition ELISA: rhEGFR on the plate, 1 nM P2-Biotin dimer as tracer, 50 nM EGF; concentration on a ligand molar basis
From the text: (§1) An additional assay was developed to provide an orthogonal assay to SPR during the evaluation of the P₂ peptide analogs and nanoparticle conjugates.

[4] = biological target: T2, Fc tagged recombinant human EGFR (rhEGFR-Fc, R&D systems, Cat#344-ER-050) (human, UniProt P00533 25-645); assay: SPR, response against peptide concentration, rhEGFR-Fc captured
T2 construct: Bought protein; also called apo-EGFR; not shown: Fc tag
Experimental: (§2) Surface plasmon resonance (SPR) binding studies were carried out on a Biacore T200 instrument (GE Healthcare). […] The contact time and resulting amount of rhEGFR-Fc capture was varied based on the nature of the analyte, namely whether it was a peptide or nanoparticle.
(§3) Peptide binding assays were carried out in 10 mM PBS buffer supplemented with 0.05% surfactant P20 and 5% DMSO by volume, at 25° C. Peptides were injected over the rhEGFR-Fc surface for 60 s, followed by dissociation (buffer injection) for 60 s and regeneration with a 10 s pulse of 3M MgCl₂. A fresh rhEGFR-Fc surface was generated for each concentration of each peptide tested. Peptide binding data was analyzed by fitting to a 1:1 Langmuir kinetic model to obtain the on-rate (kₐ), off-rate (kd) and/or equilibrium binding constant (KD) of the interaction.
All of the peptides were synthesized and evaluated for EGFR binding using SPR (Table 7). […] FIGS. 8A and 8B show a summary of the SPR binding data for the peptides.

[5] = biological target: T2, Fc tagged recombinant human EGFR …; assay: EGF competition ELISA, 10% nanoparticle conjugate
[6] = biological target: T2, Fc tagged recombinant human EGFR …; assay: EGF competition ELISA, 10% nanoparticle conjugate; remark: listed apart in the source
Experimental: An alanine scan was performed on the amino acids within the cyclic portion of the peptide structure to determine which amino acids were critical for binding. Each amino acid within the peptide was individually replaced with alanine. […] Subsequently, an alanine scan of the flanking amino acids on P₁₋₃ was performed.

[7] = biological target: T1, EGF bound EGFR (rhEGFR-Fc with …); assay: P2 competition ELISA, 1% ligand density NP
[8] = biological target: T2, Fc tagged recombinant human EGFR …; assay: SPR
[9] = biological target: T1, EGF bound EGFR (rhEGFR-Fc with …); assay: P2 competition ELISA: rhEGFR on the plate, 1 nM P2-Biotin dimer as tracer, 50 nM EGF
From the text: as §1

[10] = biological target: T2, Fc tagged recombinant human EGFR …; assay: SPR, peptide over captured rhEGFR-Fc, without EGF
Experimental: as §2, §3
The two aromatic mutations P₂₋₉₈ and P₂₋₁₀₁ were combined into one peptide (P₂₋₁₀₂).

[11] = biological target: T1, EGF bound EGFR (rhEGFR-Fc with …); assay: SPR, peptide over captured rhEGFR-Fc after rhEGF pre-injection
Experimental: as §2, §3

[12] = biological target: Fc tagged recombinant human EGFR (rhEGFR-Fc, R&D systems, Cat#344-ER-050) (human) (UniProt P00533); assay: screening ELISA, peptide 100 µM against 0.7 nM biotin-EGF on coated rhEGFR

B1: 5% P2 nanoparticle (other)
peptide: Ac-DPCTWEVWGRECLQGGK-NH2
modifications: disulfide 3-12; not fully specified (residue 17)
notes: also called P2 5% Ligand Density NP; parent P2 conjugated nanoparticle (5%)
IC50 [1]: 4.3 µg/mL | IC50 [2]: 6 µg/mL | IC50 (read off the curve) [3]: ~9 nM

B2: Peptide 8 (peptide)
peptide: Ac-MFCFRWYAGWSCVS-NH2
modifications: disulfide 3-12 (inferred)
notes: named singly only on the sheet
binding result [4]: binds

B3: 10% P1 nanoparticle (other)
peptide: Ac-SECFPLAPDWLSCILGGK(DBCO′)-NH2
modifications: disulfide 3-13; also: DBCO clicked to azide PLA-PEG nanoparticle, 10 mol %
notes: Multivalent nanoparticle conjugate; also called P1 conjugated to nanoparticle at 10 mol %; P1 NP
IC50 [5]: 211 µg/mL

B4: 10% P1-3 nanoparticle (other)
peptide: Ac-SECFPAAPDWLSCILGGK(DBCO′)-NH2
modifications: disulfide 3-13; also: DBCO clicked to azide PLA-PEG nanoparticle, 10 mol %
notes: also called P1-3 NP; P1-3 (Leu6-Ala) conjugate
IC50 [5]: 10.3 µg/mL

B5: 10% P1-3-1 nanoparticle (other)
peptide: Ac-AECFPAAPDWLSCILGGK(DBCO′)-NH2
modifications: disulfide 3-13; also: DBCO clicked to azide PLA-PEG nanoparticle, 10 mol %
10% NP Relative IC50 (normalized to P1) [6]: 1 ratio

B6: 10% P1-1 nanoparticle (other)
peptide: Ac-SECAPLAPDWLSCILGGK(DBCO′)-NH2
modifications: disulfide 3-13; also: DBCO clicked to azide PLA-PEG nanoparticle, 10 mol %
10% NP Relative IC50 (normalized to P1) [6]: ~0.3 ratio

B7: 1% P2 nanoparticle (other)
peptide: Ac-DPCTWEVWGRECLQGGK-NH2
modifications: disulfide 3-12; not fully specified (residue 17)
notes: also called P2 1% Ligand Density NP
IC50 [7]: 81 µg/mL | IC50 (read off the curve) [3]: ~30 nM

B8: P1-3-14 (peptide)
peptide: {DBCO′}-SECFPAAPDWLSCIL-NH2
modifications: disulfide 3-13 (inferred)
notes: also called Alternate DBCO placement
binding result [8]: no binding

B9: Peptide 1 (peptide)
peptide: Ac-SECFPLAPDWLSCIL-NH2
modifications: disulfide 3-13 (inferred)
notes: named singly only on the sheet; also called free literature peptide without the GGK(DBCO) tail
binding result [4]: binds

B10: P2 (Ac-DPCTWEVWGRECLQGGK(PEG4-DBCO)-CONH2) (peptide)
peptide: Ac-DPCTWEVWGRECLQGGK(PEG4‑DBCO)-NH2
modifications: disulfide 3-12
notes: also called P2 DBCO conjugate; parent peptide (P2)
IC50 (read off the curve) [9]: ~200 nM

B11: P2-102 (Ac-DPCT(2Ind)GEV(5MeO)WGRECLQGGK(PEG4-DBCO)-CONH2) (peptide)
peptide: Ac-DPCT[Igl]EV[Trp(5-OMe)]GRECLQGGK(PEG4‑DBCO)-NH2
modifications: disulfide 3-12
notes: also called aromatic analog
Kd [10]: 38 nM | Kd [11]: 32 nM

B12: P2-2/102 (Ac-DACT(2Ind)GEV(5MeO)WGRECLQGGK(DBCO)-CONH2) (peptide)
peptide: Ac-DACT[Igl]EV[Trp(5-OMe)]GRECLQGGK(DBCO′)-NH2
modifications: disulfide 3-12
notes: also called DA Aro
Kd [10]: 23.8 nM | Kd [11]: 23.3 nM

B13: P1-3-6 (peptide)
peptide: Ac-CFPAAPDWLSCGGK(DBCO′)-NH2
modifications: disulfide 1-11 (inferred)
binding result [8]: no binding

B14: P2-55 (Ac-DPPen…enLQGGK(PEG4-DBCO)-CONH2) (peptide)
peptide: DPXTWEVWGREXLQGGK
modifications: N-terminal acetyl; penicillamine at 3 and 12, disulfide; Lys17(PEG4-DBCO); C-terminal amide
notes: also called Pen analog
Kd [10]: 74 nM | Kd [11]: 69 nM

B15: P2-2/55/102 (Ac-DAPenT(2Ind)GEV(5MeO)WGREPenLQGGK(DBCO)-CONH2) (peptide)
peptide: Ac-DA[Pen]T[Igl]EV[Trp(5-OMe)]GRE[Pen]LQGGK(DBCO′)-NH2
modifications: disulfide 3-12
notes: also called DA Aro PenPen; triple mutant
Kd [10]: 53 nM | Kd [11]: 33.4 nM

B16: 5% P2-2/55 nanoparticle (other)
peptide: DAXTWEVWGREXLQGGK
modifications: not fully specified; N-terminal acetyl; penicillamine at 3 and 12, disulfide; Lys17(DBCO) clicked to azide PLA-PEG nanoparticle at 5%; C-terminal amide
notes: also called P2-2/55 [DA PenPen]; NP; Ala2-Pen
IC50 [2]: 6.3 µg/mL | Rel. Diff. (against P2 NP) [2]: 1.05 ratio

B17: P2-55/102 (Ac-DPPenT(2Ind)GEV(5MeO)WGREPenLQGGK(DBCO)-CONH2) (peptide)
peptide: Ac-DP[Pen]T[Igl]EV[Trp(5-OMe)]GRE[Pen]LQGGK(DBCO′)-NH2
modifications: disulfide 3-12
notes: also called Aro PenPen
Kd [10]: 72 nM | Kd [11]: 75.4 nM

B18: P2-2/55 (Ac-DAPen…enLQGGK(DBCO)-CONH2) (peptide)
peptide: DAXTWEVWGREXLQGGK
modifications: N-terminal acetyl; penicillamine at 3 and 12, disulfide; Lys17(DBCO); C-terminal amide
notes: also called DA PenPen
Kd [10]: 137 nM | Kd [11]: 97 nM

B19: EGFf-3 (peptide)
peptide: H-DGYCLHDGVC-NH2
modifications: cysteine pairing not given here
% inhibition of EGF [12]: 62.5%

B20: P1-3-7 (peptide)
peptide: Ac-CFPAAPDWLSCGGK(DBCO′)-NH2
modifications: disulfide 1-11 (inferred)
binding result [8]: no binding

B21: Peptide 4 (peptide)
peptide: Ac-SGCLDALWQCVY-NH2
modifications: disulfide 3-10 (inferred)
notes: as for B2
binding result [4]: binds
